# From US11230579B2, “Method of treating BCL-2 over-expressing disorders using arts containing a BH3-like domain” (CARMEL-HAIFA UNIVERSITY ECONOMIC CORPORATION LTD., priority 2012, dated 2022)
# “Also recorded” adds a separate entry of the source.
# Assays:
# HeLa cells = assay: Immunofluorescence localization of Bcl-2 (mitochondria vs cytosol) after STS; assay type: cell-based, human
# Method: To further determine the cellular localization of Bcl-2 under apoptotic and non-apoptotic conditions, Immunofluorescence assay was conducted.
# Cells in which Bcl-2 is detected at mitochondria (co-localize with MitoTracker), or at the cytosol (showing diffused pattern of staining) were counted.
# Bcl-2 [1] = assay: In vivo ubiquitination assay of Bcl-2 in MEFs; assay type: cell-based, mouse; conditions: WT MEFs, transfected, MG132 for 6 h
# Method: (§1) Cells were transiently transfected with different constructs as detailed herein and treated with MG132 (20 μM, Alexis) for 6 hours. The medium was aspirated and the cells were washed with 1×PBS at room temperature. The cells were scraped at room temperature in 100 μl of denaturation buffer (1% SDS, 140 mM NaCl, 50 mM Tris-HCl pH 7.4) containing protease inhibitor cocktail (Complete, Roche) and 10 mM NEM to preserve ubiquitine chains. The solution was transferred to 2 ml eppendorf tube. The cells were homogenized by passing through a 25-gauge needle (20 times), and boiled for 10 min after vigorous vortexing. An amount of 400 μl of renaturation buffer (2% TritonX-100, 140 mM NaCl, 50 mM Tris-HCl pH 7.4) containing protease inhibitor cocktail (Complete, Roche) and 10 mM NEM was added to the lysate. After 15 min of centrifugation (10,000 g, 4°), the supernatant was transferred into a clean eppendorf tube. The protein concentration was determined using BCA Protein Assay Kit (Pierce). Western blot analyses were performed following immunoprecipitation with particular antibody.
# The possible in vivo ubiquitination of Bcl-2 occurring upon apoptotic induction was next tested in immortalized WT MEFs transiently transfected with Bcl-2, XIAP and ubiquitin and treated with 20 μM MG132 for 6 h. […]
# Bcl-2 [2] = assay: In vivo ubiquitination assay of Bcl-2 in HeLa cells; assay type: cell-based, human; conditions: HeLa cells transfected with Bcl-2, XIAP and ubiquitin, 20 μM MG132 6 h
# Method: as §1
# More specifically, HeLa or ARTS KD HeLa cells were transiently transfected with Bcl-2, XIAP and ubiquitin and treated with 20 μM MG132 for 6 h. […] The cells were harvested and subjected to immunoprecipitation (IP) using anti-Bcl-2 antibodies, followed by immune-blotting (IB) with anti-Bcl-2 antibodies.
# BT-549 and HeLa cells = assay: Cell fractionation: release of Bcl-2 and ARTS to the cytosol after STS; assay type: cell-based, human; conditions: 0.6 μM STS
# Method: Cells were re-suspended in homogenization buffer [20 mM HEPES-KOH, pH 7.5, 10 mM KCl, 1.5 mM MgCl2, 1 mM sodium EDTA, 1 mM sodium EGTA and 1 mM DTT in the presence of 250 mM sucrose and protease inhibitors (Mini-Complete™, Roche)]. Cell homogenization was performed using a 26 G needle (Sterican® 0.45′25 mm, 26 G′1″, Gr.18, B. Braun #46507683) and 1 mL syringe (1 mL HSW NORMJECT®, Henke-Sass, Wolf GmbH #4010.200V0) using 20 strokes. Homogenates were centrifuged at 500×g for 5 min at 4° C., and the supernatant was centrifuged at 10000×g for 20 min to obtain mitochondria. The supernatant was considered as a cytosolic fraction.
# Briefly, cells were harvested and centrifuged at 300×g for 10 min, washed in TBS 2.5 mM pH 7.5, and re-pelletted. Cells were permeabilized for 5 min on ice with cytosolic extraction buffer (250 mM sucrose, 70 mM KCl, 137 mM NaCl, 4.3 mM Na2HPO4, 1.4 mM KH2PO4 pH 7.2, 1× complete protease inhibitor cocktail, Roche) containing freshly prepared digitonin (200 μg/ml, D-5628, Sigma). Cytosolic fraction was isolated by collecting the supernatant after centrifugation at 1000×g for 5 min at 4° C. Cytosolic fraction was separated on a 12% acrylamide gel and transferred to nitrocellulose membranes.
# It has been recently shown by some of the inventors that similarly to Bcl-2, ARTS resides at the MOM of living cells (Edison et al., 2012b). […]
# Bcl-2 [3] = system: Bcl-2
# Bcl-2 [4] = assay: IP with anti ARTS antibody in HeLa wt cells, Bcl-2; assay type: binding, human
# Method: (§2) Co immunoprecipitation was performed as previously described (Gottfried et al., 2004). Briefly, 10 μg of anti-ARTS antibody or 2 μg of anti-Bcl-2 or anti-XIAP antibody were added to the protein lysate and the samples were left rotating overnight at 4° C. On the following day, agarose beads conjugated to protein A/G (Santa Cruz) were added for 4 h. Samples were centrifuged at 4000 rpm, 4° C. for 5 min and washed three times with PBS. Proteins were eluted from beads following 5 min of boiling in sample buffer and separated on 12.5% SDS-PAGE gel, followed by Western blot analysis.
# (§3) Further, HeLa wt cells were treated with ABT-263 25 μM for 24 h. 750 μg of total proteins were subjected to Immunoprecipitation (IP) assay using monoclonal mouse anti ARTS Antibody (Ab). Western Blot analysis was performed using Bcl-2, Bcl-xL, ARTS and Actin antibodies. […] This binding is still seen after 24 hours of treatment with ABT-263. The decrease in binding may be the result of lower levels of Bcl-2 and Bcl-xL known to be strongly degraded after 24 hours of apoptosis.
# Bcl-2 [5] = assay: Functional-structural pull-down assay with anti Bcl2 antibody in transfected HeLa cells; assay type: binding, human; conditions: pull-down with Bcl-2 antibodies
# Method: HeLa cells were transiently transfected with Full length ARTS plasmid and 128 amino acids N′ terminus deletion of ARTS plasmid, for 24 hrs. The cells were extracted using RIPA-SDS lysis buffer. Immunoprecipitation was done by incubation of lysates overnight with anti Bcl2 antibody (BD), followed by precipitation done with protein A/G beads (Santa Cruz). Western blot analysis was performed using monoclonal anti ARTS antibody directed against its unique C terminus (Sigma).
# In order to identify the Bcl-2 binding domain in ARTS, the inventors examined whether deletion of different fragments of ARTS, namely, the N-terminal 128 amino-acid residues may have an effect. Therefore, pull-down experiments were performed in HeLa cells transfected with either the full length ARTS or a deletion mutant thereof.
# Bcl-2 [6] = assay: Over-expression of ARTS in COS-7 cells, Bcl-2 levels by Western blot and densitometry; assay type: cell-based; conditions: COS-7 cells, transient transfection
# From the text: For transient transfections jetPEI™ (Polyplus Transfection) and Transfectol (GeneChoice) reagents were used according to the manufacturers' instructions.
# To determine whether ARTS promotes apoptosis by regulating the levels of Bcl-2, the inventors first over-expressed ARTS in COS-7 cells. More specifically, COS-7 cell were transiently transfected with ARTS, Bcl-2 or empty vector or co-transfected with both constructs.
# Bcl-2 [7] = assay: Myc beads pull-down of ARTS and Bcl-2 in co-transfected COS-7 cells; assay type: binding; conditions: COS-7 cells co-transfected with Bcl-2 and ARTS
# Method: (§4) COS-7 cells were co-transfected with different constructs as detailed herein. The cells were lysed in RIPA buffer (150 mM NaCl, 50 mM Tris-HCl (pH 8), 1% NP-40, 0.5% deoxycholate acid containing protease inhibitors (mini Complete, Roche)). The samples were left rotating overnight at 4° C. with the anti-Myc-beads (Santa Cruz). Samples were centrifuged at 4000 rpm, 4° C. for 5 min and washed four times in PBS. Proteins were eluted from beads following 5 min of boiling in sample buffer. Proteins were separate on 12.5% SDS-PAGE gel, followed by Western blot analysis.
# The mechanism by which ARTS regulates Bcl-2 levels was further tested using a pull-down assay in COS-7 cells which were co-transfected with Bcl-2 and ARTS expression vectors. Pull-down assays were performed using agarose anti-myc beads followed by Western blot analysis using mouse anti-ARTS and anti-Bcl-2 antibodies.
# XIAP and Bcl-2 = target: T1, XIAP and Bcl-2 (Homo sapiens, UniProt P10415+P98170); assay: Pull-down of myc-XIAP in COS-7 cells co-transfected with ARTS, flag-Bcl-2 and myc-XIAP; assay type: binding
# T1 construct: expressed in transfected cells; host or cells: COS-7
# T1 sequence (P98170 whole entry): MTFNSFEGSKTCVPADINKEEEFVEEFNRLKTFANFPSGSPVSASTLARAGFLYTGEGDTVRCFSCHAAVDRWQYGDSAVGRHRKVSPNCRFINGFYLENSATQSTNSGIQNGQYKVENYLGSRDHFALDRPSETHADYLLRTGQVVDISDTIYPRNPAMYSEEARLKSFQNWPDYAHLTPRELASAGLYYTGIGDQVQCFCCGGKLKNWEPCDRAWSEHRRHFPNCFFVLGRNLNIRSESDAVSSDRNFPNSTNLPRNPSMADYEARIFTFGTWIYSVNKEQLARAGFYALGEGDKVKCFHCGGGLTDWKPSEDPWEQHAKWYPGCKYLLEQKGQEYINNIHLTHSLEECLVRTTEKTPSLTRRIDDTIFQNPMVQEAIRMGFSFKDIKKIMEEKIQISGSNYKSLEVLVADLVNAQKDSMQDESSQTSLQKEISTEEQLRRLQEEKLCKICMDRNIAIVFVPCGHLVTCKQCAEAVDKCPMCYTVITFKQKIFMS
# T1 sequence (P10415 whole entry): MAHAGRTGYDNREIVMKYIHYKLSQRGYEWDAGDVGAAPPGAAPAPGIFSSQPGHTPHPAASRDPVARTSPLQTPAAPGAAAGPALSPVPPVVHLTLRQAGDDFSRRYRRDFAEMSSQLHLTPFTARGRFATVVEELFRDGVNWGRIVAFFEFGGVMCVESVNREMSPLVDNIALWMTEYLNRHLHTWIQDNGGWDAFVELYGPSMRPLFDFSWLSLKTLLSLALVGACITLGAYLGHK
# Method: as §4
# Further understanding and evaluation of the relative contribution of ARTS to the formation of a complex with Bcl-2 and XIAP was obtained by over-expressing ARTS, Bcl-2, and XIAP alone or all together in COS-7 cells, which contain relatively small amounts of endogenous ARTS.
# FIGS. 5A and 5B show results of COS-7 cells (pull down and lysates) transiently co-transfected with combinations of ARTS, flag-Bcl-2, and myc-XIAP constructs. Pull-down of XIAP was performed using anti-myc beads, and the precipitate was subjected to western blot analyses. […] This weak binding was attributed to the presence of low endogenous levels of ARTS in these COS-7 cells resulting in almost no formation of the complex.
# Bcl-2 [8] = assay: Bimolecular Fluorescence Complementation (BiFC) with flow cytometry, ARTS and Bcl-2; assay type: binding, human; conditions: living cells, 30 minutes after apoptotic induction, data not shown
# From the text: (§5) The Bimolecular Fluorescence Complementation (BiFC) assay, provides a simple and direct way to visualize protein-protein interactions in real-time and in living cells. The method is based on formation of a fluorescent complex through the association of two fragments of a fluorescent protein, brought together by an interaction between proteins fused to the fragments. This method is especially attractive because the Green fluorescent protein (GFP) or Yellow fluorescent protein (YFP) chromophore forms spontaneously on protein folding in virtually every cell type tested (Kerppola, 2006).
# (§6) Direct binding between [ARTS and Bcl-2] and [XIAP and Bcl-2] was examined using the BiFC system. […]
# (§7) Transfection was performed using 200 ng of each plasmid together with 50 ng of pdsRED plasmid which served as control for transfection efficiency. […] Flow cytometry analyses of cell suspensions were performed using a fluorescence-activated cell sorter (FACSCantoII; BD Biosciences) equipped with an argon laser emitting at 488 nm. […] Results were analyzed using […] software (BD Biosciences). A ratio between YFP fluorescence and Red fluorescence was calculated for each time point.
# (§8) To further investigate the binding relationships within this complex, the split-Venus, Bimolecular Fluorescence Complementation (BiFC) system was used. […]
# Bcl-2 and XIAP = assay: Immunoprecipitation with anti-ARTS monoclonal antibody in HeLa, BT-549 and COS-7 cells; assay type: binding; conditions: BT-549 and 6-Myc-ARTS transfected COS-7 cells
# Method: as §2
# XIAP [9] = target: T2, XIAP (Homo sapiens, UniProt P98170); conditions: in vitro and in vivo; cited from earlier work
# T2 sequence (P98170 whole entry): as the sequence (P98170 whole entry) above
# Bcl-XL = Bcl-XL (Homo sapiens, UniProt Q07817); assay: IP with anti ARTS antibody in HeLa wt cells, Bcl-xL; assay type: binding; design: endogenous in cells; host or cells: HeLa wt cells
# Bcl-XL, sequence (Q07817 whole entry): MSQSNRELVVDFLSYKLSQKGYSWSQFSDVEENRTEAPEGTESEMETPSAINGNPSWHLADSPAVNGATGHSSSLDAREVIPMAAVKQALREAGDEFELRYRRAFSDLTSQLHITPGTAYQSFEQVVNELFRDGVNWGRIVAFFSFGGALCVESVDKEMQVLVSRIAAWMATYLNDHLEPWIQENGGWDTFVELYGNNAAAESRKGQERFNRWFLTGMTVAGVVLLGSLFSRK
# Method: as §2, §3
# XIAP [10] = target: T2, XIAP; assay: Bimolecular Fluorescence Complementation (BiFC) with flow cytometry, ARTS and XIAP; assay type: binding; design: expressed in transfected cells; host or cells: HeLa; conditions: living cells, 30 minutes after apoptotic induction, data not shown
# From the text: as §5, §6, §7, §8
molecule,measurement,setting,value
"CN[C@@H]1C[C@H]2O[C@@](C)([C@@H]1OC)n1c3ccccc3c3c4c(c5c6ccccc6n2c5c31)C(=O)NC4 [STS, staurosporine]",cells exhibiting Bcl-2 in the cytosol,"HeLa cells; HeLa cells transfected with Bcl-2, 180 minutes of STS treatment",94%
same,cells exhibiting Bcl-2 in their cytosol,"HeLa cells; HeLa cells transfected with Bcl-2, sixty minutes following STS treatment",63%
same,polyubiquitinated forms of Bcl-2 following apoptotic induction,Bcl-2 [1],accumulation of polyubiquitinated forms of Bcl-2; also recorded: accumulation of poly-ubiquitinated forms of Bcl-2; also recorded: poly-ubiquitinated forms of Bcl-2 detected
same,time of appearance of Bcl-2 polyubiquitinated forms,Bcl-2 [1],≤ 30 min
same,time at which poly-ubiquitinated forms of Bcl-2 are seen,Bcl-2 [2]; 1.5 μM STS,≤ 30 min
same,poly-ubiquitinated forms of Bcl-2 after induction of apoptosis,Bcl-2 [2]; 1.5 μM STS 0.5 h,significant accumulation of poly-ubiquitinated forms of Bcl-2
same,time at which Bcl-2 and ARTS are found in the cytosol after apoptosis induction,BT-549 and HeLa cells,2 to 15 min
same,Bcl-2 levels,"Bcl-2 [3]; HeLa cells, 60 and 180 minutes treatments with STS",decrease in Bcl-2 levels
same,Bcl-2 levels upon induction of apoptosis,"Bcl-2 [3]; different cell lines and mouse embryonic fibroblasts (MEFs), Western blot",down regulated
"ARTS: septin-like mitochondrial protein; human ARTS of 274 amino acid residues, GenBank Accession No. AF176379 (protein, listed as Homo sapiens) MIKRFLEDTTDDGELSKFVKDFSGNASCHPPEAKTWASRPQVPEPRPQAPDLYDDDLEFRPPSRPQSSDNQQYFCAPAPLSPSARPRSPWGKLDPYDSSEDDKEYVGFATLPNQVHRKSVKKGFDFTLMVAGESGLGKSTLVNSLFLTDLYRDRKLLGAEERIMQTVEITKHAVDIEEKGVRLRLTIVDTPGFGDAVNNTECWKPVAEYIDQQFEQYFRDESGLNRKNIQDNRVHCCLYFISPFGHGYGPSLRLLAPPGAVKGTGQEHQGQGCH",binding to Bcl-2 in living cells,Bcl-2 [4],binds
same,binding to Bcl-2,Bcl-2 [5],binds to Bcl-2
same,Bcl-2 levels on over expression,Bcl-2 [6],reduction in Bcl-2 levels
same,complex with Bcl-2,Bcl-2 [7],forms a complex with Bcl-2
same,ability of XIAP to bind to Bcl-2 on over-expression of ARTS,XIAP and Bcl-2,significantly increased
same,binding to Bcl-2 (BiFC fluorescence),Bcl-2 [8],Strong binding
same,"complex of ARTS, Bcl-2 and XIAP",Bcl-2 and XIAP,form a complex
same,binding to XIAP,XIAP [9],binds directly to XIAP
same,binding to Bcl-xL in living cells,Bcl-XL,binds
same,binding to XIAP (BiFC fluorescence),XIAP [10],Strong binding
